Laboratory results as given in publication doi:10.1101/2023.10.29.564595, “The N-terminal region of DNMT3A combines multiple chromatin reading motifs to guide recruitment”.

Biological target: DNMT3A1 1-427 R181A/R183A (human, UniProt Q9Y6K1 1-427, R181A;R183A)
Assay: EMSA; only marginally affected; EMSA: 15 mM HEPES pH 7.5, 75 mM NaCl, 0.05% Triton X-100, 0.05 mg/mL BSA, 10% glycerol, 1 mM DTT, 0.5 mg/mL salmon sperm DNA (nucleosomes), 2.4 nM tracer, 1 h on ice; full-length complex: 17.5 mM HEPES pH 8, 150 mM NaCl, 1.5 mM MgCl2, 2.5% glycerol, 1 mM DTT, 0.1 mg/mL BSA, on ice
Settings: protein: recombinant; tags: His-MBP; label: 5' 6-FAM; blunt

Chain of DNMT3A1 1-427 R181A/R183A (Q9Y6K1 1-427 R181A/R183A): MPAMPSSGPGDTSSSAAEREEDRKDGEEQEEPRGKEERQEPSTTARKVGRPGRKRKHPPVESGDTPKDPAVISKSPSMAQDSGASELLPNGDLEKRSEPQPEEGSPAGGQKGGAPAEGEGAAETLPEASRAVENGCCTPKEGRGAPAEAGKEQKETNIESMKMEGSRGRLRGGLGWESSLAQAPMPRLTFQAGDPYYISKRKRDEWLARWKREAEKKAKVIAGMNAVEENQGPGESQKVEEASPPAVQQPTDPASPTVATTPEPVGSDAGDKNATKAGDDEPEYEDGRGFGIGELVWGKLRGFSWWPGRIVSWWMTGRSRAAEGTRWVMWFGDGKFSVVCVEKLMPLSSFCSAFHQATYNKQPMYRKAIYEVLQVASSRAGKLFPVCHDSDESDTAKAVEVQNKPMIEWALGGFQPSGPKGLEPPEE

B1: free 175 bp Widom601 DNA (dsDNA)
DNA 1: TATACGCGGCCGCCCTGGAGAATCCCGGTGCCGAGGCCGCTCAATTGGTCGTAGACAGCTCTAGCACCGCTTAAACGCACGTACGCGCTGTCCCCCGCGTTTTAACCGCCAAGGGGATTACTCCCTAGTCTCCAGGCACGTGTCAGATATATACATCCTGTGCAATGTGTTCCAT
DNA 2: ATGGAACACATTGCACAGGATGTATATATCTGACACGTGCCTGGAGACTAGGGAGTAATCCCCTTGGCGGTTAAAACGCGGGGGACAGCGCGTACGTGCGTTTAAGCGGTGCTAGAGCTGTCTACGACCAATTGAGCGGCCTCGGCACCGGGATTCTCCAGGGCGGCCGCGTATA
  binding result: binds
